Measured values published in article PMC2944805, “A Major Determinant of Cyclophilin Dependence and Cyclosporine Susceptibility of Hepatitis C Virus Identified by a Genetic Approach” (PLoS Pathogens, 2010).

Biological target: T1, 15N-labeled human CyPA (human, UniProt P62937 1-165, 15N-labeled)
T1 construct: human cyclophilin A (CyPA); also called cyclophilin A
Assay: NMR titration; peptide added stepwise to 15N-labeled CyPA (~0.5 mM); 2D 1H,15N-HSQC, 22°C; 50 mM NaH2PO4/Na2PO4, pH 6.3, 40 mM NaCl, 2 mM EDTA, 1 mM DTT
Conditions: both partners purified

B1: synthetic WT peptide, residues 304-323 of NS5A (peptide)
peptide: GFPRALPAWARPDYNPPLVE
notes: residues 304-323 of NS5A of HCV JFH-1 (genotype 2a); numbers count on: NS5A itself, not the polyprotein; also called 20-mer peptide (G304-E323); source: synthetic peptide, bought: NEO BioScience
- binding result: binds
